Measured values as given in the supplement of paper PMC7877785.
± gives the uncertainty stated by the source.

Assay: self-splicing fitness, log relative to wild type (ln ratio); higher = more splicing; Tetrahymena group I intron in knt gene, E. coli kanamycin selection, DiMSum; sequences stand for … in CUCUCU…GGAGGGAAAAGUUAUCAGGCAUGCACCUGGUAGCUAGUCUUUAAACCAAUAGAUUGCAUCGGUUUAAAAGGCAAGACCGUCAAAUUGCGGGAAAGGGGUCAACAGCCGUUCAGUACCAAGUCUCAGGGGAAACUUUGAGAUGGCCUUGCAAAGGGUAUGGUAAUAAGCUGACGGACAUGGUCCUAACCACGCAGCCAAGUCCUAAGUCAACAGAUCUUCUGUUGAUAUGGAUGCAGUUCACAGACUAAAUGUCGGUCGGGGAAGAUGUAUUCUUCUCAUAAGAUAUAGUCGGACCUCUCCUUAAUGGGAGCUAGCGGAUGAAGUGAUGCAACACUGGAGCCGCUGGGAACUAAUUUGUAUGCGAAAGUAUAUUGAUUAGUUUUGGAGUACUCGUGGUCG
Method in brief: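 Fitness was computed with DiMSum as the error-weighted combination of replicate fold changes, kanamycin versus none, each normalised to wild type. The library randomised all eight intron nucleotides of the P1ex region, with the intron placed in the knt kanamycin-resistance gene on pET-22b(+) in E. coli BL21(DE3). Six replicate transformations were grown overnight at 37°C or 30°C on LB agar with or without 25 μg/mL kanamycin, plus 100 μg/mL carbenicillin, 50 μM IPTG and 0.2% rhamnose. Pooled colonies were amplicon-sequenced on an Illumina HiSeq 2500.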

Sequence	self-splicing fitness (ln) (30 °C)	self-splicing fitness (ln) (37 °C)
UCGCAGCAAUAUUACGGCCA	-0.107 ± 0.091	0.246 ± 0.11
UCGCAGCAAUAUUACGGGGC	-2.52 ± 0.23	-2.63 ± 0.27
UCGCAGCAAUAUUACGUACU	–	-1.86 ± 0.32
UCGCAGCAAUAUUACGUCCG	-0.808 ± 0.078	-0.0675 ± 0.1
UCGGAGCAAUAUUACGAAAU	-3.14 ± 0.49	–
UCGGAGCAAUAUUACGACUA	-1.22 ± 0.37	-1.83 ± 0.38
UCGGAGCAAUAUUACGAGCU	-2.89 ± 0.27	–
UCGGAGCAAUAUUACGAUAC	-3.5 ± 0.35	-0.757 ± 0.33
UCGGAGCAAUAUUACGCUAA	-2.18 ± 0.35	–
UCGGAGCAAUAUUACGGAAA	–	-2.64 ± 0.36
UCGGAGCAAUAUUACGGACA	–	-1.38 ± 0.37
UCGGAGCAAUAUUACGGUCU	-0.916 ± 0.37	–
UCGGAGCAAUAUUACGGUUA	-2.38 ± 0.47	-2.3 ± 0.28
UCGGAGCAAUAUUACGUAGG	-1.78 ± 0.13	-0.619 ± 0.15
UCGGAGCAAUAUUACGUCGG	-1.7 ± 0.24	-2.04 ± 0.28
UCGGAGCAAUAUUACGUGAU	–	-3.24 ± 0.47
UCGGAGCAAUAUUACGUGCC	-3.26 ± 0.34	-2.53 ± 0.45
UCGGAGCAAUAUUACGUGGG	-3.49 ± 0.32	-3.22 ± 0.28
UCGGAGCAAUAUUACGUGUA	–	-1.29 ± 0.2
UCGGAGCAAUAUUACGUUAG	–	-2.12 ± 0.22
UCGUAGCAAUAUUACGAAAG	-3.1 ± 0.17	-2.16 ± 0.23
UCGUAGCAAUAUUACGACAC	-3.54 ± 0.34	-2.7 ± 0.4
UCGUAGCAAUAUUACGACAG	–	-1.5 ± 0.29
UCGUAGCAAUAUUACGACGA	-3.15 ± 0.3	-0.365 ± 0.11
UCGUAGCAAUAUUACGACUC	–	-1.34 ± 0.31
UCGUAGCAAUAUUACGAGAG	-4.38 ± 0.46	-1.89 ± 0.25

Sequence	self-splicing fitness (ln) (30 °C)	self-splicing fitness (ln) (37 °C)
UCGUAGCAAUAUUACGAGUA	-2.71 ± 0.18	-1.21 ± 0.13
UCGUAGCAAUAUUACGAUCA	-0.922 ± 0.19	-0.511 ± 0.17
UCGUAGCAAUAUUACGAUUG	-2.6 ± 0.15	-2.92 ± 0.28
UCGUAGCAAUAUUACGCAGU	-3.54 ± 0.39	-2.51 ± 0.28
UCGUAGCAAUAUUACGCCCU	-1 ± 0.25	-0.827 ± 0.34
UCGUAGCAAUAUUACGGACU	-3.21 ± 0.31	-0.974 ± 0.21
UCGUAGCAAUAUUACGGCUU	-2.85 ± 0.46	-1.64 ± 0.33
UCGUAGCAAUAUUACGGUAG	-4.09 ± 0.36	-3.06 ± 0.4
UCGUAGCAAUAUUACGGUGU	-3.09 ± 0.13	-2.7 ± 0.19
UCGUAGCAAUAUUACGUAAU	-2.47 ± 0.14	-1.78 ± 0.17
UCGUAGCAAUAUUACGUGCU	-2.98 ± 0.26	-2.83 ± 0.48
UCGUAGCAAUAUUACGUGGA	-2.39 ± 0.16	-2.36 ± 0.13
UCGUAGCAAUAUUACGUUUA	-1.5 ± 0.085	-0.934 ± 0.08
UCGUAGCAAUAUUACGUUUC	-3.71 ± 0.24	-2.31 ± 0.21
UCUAAGCAAUAUUACGAACA	-1.21 ± 0.28	-1.2 ± 0.2
UCUAAGCAAUAUUACGAAUA	–	-1.52 ± 0.32
UCUAAGCAAUAUUACGACAG	-1.58 ± 0.1	-0.799 ± 0.15
UCUAAGCAAUAUUACGACUC	-3.61 ± 0.48	-2.43 ± 0.42
UCUAAGCAAUAUUACGACUU	-3.9 ± 0.28	-3.44 ± 0.37
UCUAAGCAAUAUUACGAGAA	-3.17 ± 0.5	-1.69 ± 0.39
UCUAAGCAAUAUUACGAGCC	-2.34 ± 0.34	–
UCUAAGCAAUAUUACGAGCG	-1.19 ± 0.1	-0.708 ± 0.12
UCUAAGCAAUAUUACGAUCG	-1.06 ± 0.099	-0.234 ± 0.1
UCUAAGCAAUAUUACGCAAC	-3.54 ± 0.17	-1.32 ± 0.2
UCUAAGCAAUAUUACGCAAU	–	-3.12 ± 0.43
UCUAAGCAAUAUUACGCAGA	–	-0.999 ± 0.21

Sequence	self-splicing fitness (ln) (30 °C)	self-splicing fitness (ln) (37 °C)
UCUAAGCAAUAUUACGGACA	-2.39 ± 0.18	-1.18 ± 0.17
UCUAAGCAAUAUUACGGACU	-3.51 ± 0.28	-2.84 ± 0.27
UCUAAGCAAUAUUACGGCAG	-1.35 ± 0.13	-0.508 ± 0.14
UCUAAGCAAUAUUACGGCCG	-1.36 ± 0.34	0.444 ± 0.3
UCUAAGCAAUAUUACGGCUC	–	-1.67 ± 0.35
UCUAAGCAAUAUUACGGGUA	-1.64 ± 0.11	-0.58 ± 0.1
UCUAAGCAAUAUUACGUAAU	-3.41 ± 0.2	-1.66 ± 0.19
UCUAAGCAAUAUUACGUAGU	-0.857 ± 0.05	-0.481 ± 0.069
UCUAAGCAAUAUUACGUCGU	-1.19 ± 0.1	-0.695 ± 0.12
UCUAAGCAAUAUUACGUGCA	-1.2 ± 0.12	-0.538 ± 0.13
UCUAAGCAAUAUUACGUUGG	-1.6 ± 0.064	-1.37 ± 0.086
UCUCAGCAAUAUUACGACCA	-0.757 ± 0.13	-0.615 ± 0.14
UCUCAGCAAUAUUACGACGC	–	0.221 ± 0.23
UCUCAGCAAUAUUACGACUC	-3.38 ± 0.38	-2.02 ± 0.33
UCUCAGCAAUAUUACGAGCU	-1.48 ± 0.086	-0.552 ± 0.12
UCUCAGCAAUAUUACGAUAC	-1.92 ± 0.28	-2.46 ± 0.45
UCUCAGCAAUAUUACGAUCG	-1.29 ± 0.12	-0.618 ± 0.15
UCUCAGCAAUAUUACGCAAU	-2.45 ± 0.23	-1.89 ± 0.23
UCUCAGCAAUAUUACGCAUA	-2.22 ± 0.13	-0.634 ± 0.12
UCUCAGCAAUAUUACGCCUC	-3.12 ± 0.27	-2.27 ± 0.29
UCUCAGCAAUAUUACGGACU	-1.23 ± 0.062	-0.345 ± 0.088
UCUCAGCAAUAUUACGGCCG	–	-2.73 ± 0.38
UCUCAGCAAUAUUACGUAAG	-2.07 ± 0.12	-1.17 ± 0.13
UCUCAGCAAUAUUACGUACU	-3.39 ± 0.28	-1.2 ± 0.19
UCUCAGCAAUAUUACGUAUA	-2.86 ± 0.17	-1.32 ± 0.13
UCUCAGCAAUAUUACGUCAU	-3.13 ± 0.2	-3.29 ± 0.27

Sequence	self-splicing fitness (ln) (30 °C)	self-splicing fitness (ln) (37 °C)
UCUCAGCAAUAUUACGUCGU	-2.11 ± 0.091	-1.91 ± 0.11
UCUCAGCAAUAUUACGUCUU	-3.25 ± 0.17	-2.83 ± 0.15
UCUCAGCAAUAUUACGUUGG	-3.58 ± 0.14	-3.73 ± 0.23
UCUCAGCAAUAUUACGUUUG	-4.44 ± 0.19	-3.1 ± 0.15
UCUGAGCAAUAUUACGCAAG	-3.36 ± 0.18	-2.16 ± 0.19
UCUGAGCAAUAUUACGCCCU	–	-1.62 ± 0.33
UCUGAGCAAUAUUACGCGGC	-4.16 ± 0.47	-3.58 ± 0.33
UCUGAGCAAUAUUACGCGUA	-2.5 ± 0.19	0.763 ± 0.13
UCUGAGCAAUAUUACGCGUG	-2.36 ± 0.16	-0.768 ± 0.11
UCUGAGCAAUAUUACGCUCC	-2.04 ± 0.49	–
UCUGAGCAAUAUUACGCUGG	-2 ± 0.16	-1.11 ± 0.17
UCUGAGCAAUAUUACGGACG	-1.17 ± 0.35	-2.21 ± 0.45
UCUGAGCAAUAUUACGGCAU	-2.79 ± 0.27	–
UCUGAGCAAUAUUACGGCUA	-3.33 ± 0.42	-2.58 ± 0.29
UCUGAGCAAUAUUACGGGUG	-3.83 ± 0.19	-2.42 ± 0.14
UCUGAGCAAUAUUACGGUAA	-2.84 ± 0.33	-2.24 ± 0.3
UCUGAGCAAUAUUACGUAAU	-3.33 ± 0.23	-2.12 ± 0.29
UCUGAGCAAUAUUACGUCGA	-0.0432 ± 0.089	0.353 ± 0.12
UCUGAGCAAUAUUACGUGCG	-3 ± 0.1	-1.34 ± 0.09
UCUGAGCAAUAUUACGUGUU	-3.93 ± 0.27	-2.55 ± 0.23
UCUGAGCAAUAUUACGUUCA	-2.84 ± 0.18	-2.87 ± 0.28
UCUUAGCAAUAUUACGAAGC	-2.94 ± 0.21	-2.05 ± 0.17
UCUUAGCAAUAUUACGAGCA	-0.901 ± 0.15	-0.00766 ± 0.15
UCUUAGCAAUAUUACGAGGU	-3.29 ± 0.29	-1.82 ± 0.2
